Laboratory results taken from article PMC10804683, “Identification of the pyridoxal 5′‐phosphate allosteric site in human pyridox(am)ine 5′‐phosphate oxidase” (Protein Science : A Publication of the Protein Society, 2024).

Substrate: Cc1ncc(COP(=O)(O)O)c(CN)c1O
Assay: purified protein, by the assay type
Conditions: other: F48A, 50 mM Tris–HCl pH 7.6, 37°C, 2 μM enzyme

B1: human PNPO F48A variant (Homo sapiens; F48A) (protein)
chain: MTCWLRGVTATFGRPAEWPGYLSHLCGRSAAMDLGPMRKSYRGDREAAEETHLTSLDPVKQFAAWFEEAVQCPDIGEANAMCLATCTRDGKPSARMLLLKGFGKDGFRFFTNFESRKGKELDSNPFASLVFYWEPLNRQVRVEGPVKKLPEEEAECYFHSRPKSSQIGAVVSHQSSVIPDREYLRKKNEELEQLYQDQEVPKPKSWGGYVLYPQVMEFWQGQTNRLHDRIVFRRGLPTGDSPLGPMTHRGEEDWLYERLAP
With B1 the Km was 100 ± 5 µM and the kcat was 0.1785 ± 0.003 s⁻¹.
